What all share (assay): fluorescence polarisation
In experiment [1] the target is T1, wild type Rb pocket domain (Rb^P) (human, UniProt P06400 380-788).
T1 sequence: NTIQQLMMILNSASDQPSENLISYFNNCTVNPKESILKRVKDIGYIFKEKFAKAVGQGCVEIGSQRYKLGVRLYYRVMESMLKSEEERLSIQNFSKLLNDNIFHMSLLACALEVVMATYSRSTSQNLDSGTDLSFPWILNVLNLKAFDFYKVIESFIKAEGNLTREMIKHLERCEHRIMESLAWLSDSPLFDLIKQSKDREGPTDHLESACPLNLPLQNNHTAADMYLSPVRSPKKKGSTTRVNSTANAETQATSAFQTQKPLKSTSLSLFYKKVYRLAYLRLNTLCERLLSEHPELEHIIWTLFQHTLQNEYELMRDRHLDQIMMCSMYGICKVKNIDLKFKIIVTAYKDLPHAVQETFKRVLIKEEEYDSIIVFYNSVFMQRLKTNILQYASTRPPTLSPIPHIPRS

Another experiment addresses T2, Rb^P I703F (human, UniProt P06400 380-788, I703F).
T2 sequence: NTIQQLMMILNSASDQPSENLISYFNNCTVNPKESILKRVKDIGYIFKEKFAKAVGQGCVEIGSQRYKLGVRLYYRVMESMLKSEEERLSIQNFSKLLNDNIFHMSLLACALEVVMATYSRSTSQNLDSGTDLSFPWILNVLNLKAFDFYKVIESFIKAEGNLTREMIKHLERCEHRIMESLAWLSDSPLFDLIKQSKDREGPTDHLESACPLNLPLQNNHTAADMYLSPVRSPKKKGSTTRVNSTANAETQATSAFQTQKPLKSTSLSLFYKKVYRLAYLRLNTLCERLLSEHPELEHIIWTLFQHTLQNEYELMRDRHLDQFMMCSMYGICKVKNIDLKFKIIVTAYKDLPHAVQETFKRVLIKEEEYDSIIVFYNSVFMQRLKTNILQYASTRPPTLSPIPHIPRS

A further experiment concerns the target T3, Rb^P M704V (human, UniProt P06400 380-788, M704V).
T3 sequence: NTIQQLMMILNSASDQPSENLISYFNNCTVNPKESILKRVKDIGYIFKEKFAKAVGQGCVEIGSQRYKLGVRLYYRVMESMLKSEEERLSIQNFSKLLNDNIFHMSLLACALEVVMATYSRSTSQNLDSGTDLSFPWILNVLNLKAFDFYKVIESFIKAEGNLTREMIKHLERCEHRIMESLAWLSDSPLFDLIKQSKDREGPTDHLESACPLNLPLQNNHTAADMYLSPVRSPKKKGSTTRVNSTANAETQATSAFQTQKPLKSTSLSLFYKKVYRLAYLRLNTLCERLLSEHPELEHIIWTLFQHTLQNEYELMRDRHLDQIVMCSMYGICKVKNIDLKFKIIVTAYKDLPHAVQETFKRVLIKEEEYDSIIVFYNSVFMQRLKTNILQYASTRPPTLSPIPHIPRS

The next experiment deals with T4, Rb^P E554K (human, UniProt P06400 380-788, E554K).
T4 sequence: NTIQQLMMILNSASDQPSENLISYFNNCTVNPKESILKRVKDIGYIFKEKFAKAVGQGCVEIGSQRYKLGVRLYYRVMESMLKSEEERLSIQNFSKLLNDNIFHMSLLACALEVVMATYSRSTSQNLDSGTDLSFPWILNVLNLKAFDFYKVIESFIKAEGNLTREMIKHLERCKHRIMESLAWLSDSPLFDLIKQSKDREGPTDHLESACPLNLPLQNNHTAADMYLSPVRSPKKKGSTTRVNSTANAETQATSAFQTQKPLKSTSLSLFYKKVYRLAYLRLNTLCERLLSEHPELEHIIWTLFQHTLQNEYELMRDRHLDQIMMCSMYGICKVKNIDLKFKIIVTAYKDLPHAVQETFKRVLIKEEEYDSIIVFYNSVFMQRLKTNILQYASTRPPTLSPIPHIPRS

Another experiment addresses T5, Rb^P S751Y (human, UniProt P06400 380-788, S751Y).
T5 sequence: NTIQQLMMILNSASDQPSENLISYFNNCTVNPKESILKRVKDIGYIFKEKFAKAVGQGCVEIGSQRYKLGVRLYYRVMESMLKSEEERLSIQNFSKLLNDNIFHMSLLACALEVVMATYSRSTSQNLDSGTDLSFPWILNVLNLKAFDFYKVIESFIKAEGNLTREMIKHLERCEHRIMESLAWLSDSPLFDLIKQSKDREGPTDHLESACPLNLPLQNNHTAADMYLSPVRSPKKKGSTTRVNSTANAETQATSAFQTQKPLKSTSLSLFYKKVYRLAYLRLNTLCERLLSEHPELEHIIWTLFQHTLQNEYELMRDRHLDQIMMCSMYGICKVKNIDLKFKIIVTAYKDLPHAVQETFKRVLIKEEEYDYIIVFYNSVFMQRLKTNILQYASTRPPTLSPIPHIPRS

Experiment [2] deals with T1, wild type Rb pocket domain (Rb^P). This is another data set of the same source.
Experiment [3] has the same target. This is another data set of the same source.

Like-named read-outs stand apart in the source and are kept apart here. Where no end group is shown, it is not given here. TMR = tetramethyl rhodamine dye

Turning to {TMR}-GEGIRDLFDCDFGDLTPLD [TMR-E2F1^TD (peptide of the E2F1 transactivation domain, N-labeled with tetramethyl rhodamine)], the Kd in experiment [1] was 17 nM; with Rb^P I703F, 94 nM; in the experiment with Rb^P M704V it was 46 nM; in the experiment with Rb^P E554K it was 1740 nM; with Rb^P S751Y, 28 nM; in experiment [2] it was 22 nM. Besides, the Kd in experiment [3] is 14 nM.

The record behind these values is doi:10.1101/2024.09.22.614354 (bioRxiv, 2024).
